The values that follow come from patent US20180282719A1 (published 2018).

Test [1] has as its target T1, human IL-6 (Toray) (human, UniProt P05231 30-212).
T1 construct: also called human interleukin-6
Description: SPR Biacore T100, antibody on protein A/G chip, human IL-6 analyte, pH 7.4, 37 C. How it is done: (§1) Kinetic analysis of antigen-antibody reactions at pH 5.5 and pH 7.4 was carried out using a Biacore T100™ surface plasmon resonance system (GE Healthcare) for the three types of antibodies prepared as mentioned above: Anti-IL6 wild type, Anti-IL6 clone 1, and Anti-IL-6 clone 2 (buffer: DPBS(−) (pH 7.4 or pH 5.5), 150 mM NaCl). The antibodies were bound to a sensor chip on which recomb-protein A/G (Pierce) was immobilized by amine coupling, and then human IL-6 (Toray) adjusted to an appropriate concentration was injected on the chip as an analyte. All the measurements were carried out at 37° C. Association rate constants kₐ (1/Ms) and dissociation rate constants kd (1/s) were calculated using Biacore T100™ Evaluation Software (GE Healthcare), and dissociation constants KD (M) were calculated based on those values (Table 14). Furthermore, the ratio of affinity at pH 5.5 and pH 7.4 was calculated for each clone to evaluate the pH-dependent binding.

The target of test [2] is T1, human IL-6 (Toray). Put plainly: SPR Biacore T100, antibody on protein A/G chip, human IL-6 analyte, pH 5.5, 37 C. How it is done:
as §1

The target of test [3] is T1, human IL-6 (Toray). Description: SPR Biacore T100, antibody on protein A/G chip, human IL-6 analyte, 37 C, ratio of pH 5.5 to pH 7.4. The method, then: as §1
Test [4] concerns the target T1, human IL-6 (Toray). Description: SPR Biacore T100, antibody on protein A/G chip, human IL-6 analyte, 37 C. The method, then:
as §1

Where only a bound is given, the exact number is not on record here.

B1: Anti-IL6 wild type (antibody, human IgG1, kappa, V domains shown)
VH: EVQLVESGGKLLKPGGSLKLSCAASGFTFSSFAMSWFRQSPEKRLEWVAEISSGGSYTYYPDTVTGRFTISRDNAKNTLYLEMSSLRSEDTAMYYCARGLWGYYALDYWGQGTSVTVSS
VL: QIVLIQSPAIMSASPGEKVTMTCSASSSVSYMYWYQQKPGSSPRLLIYDTSNLASGVPVRFSGSGSGTSYSLTISRMEAEDAATYYCQQWSGYPYTFGGGTKLEIKR
notes: Antibody of WO 2004/039826, rebuilt and tested here; also called anti-IL-6 antibody including the H chain (WT) and L chain (WT)
In test [1], B1 showed a Kd of 0.0191 nM, a koff of 0.000391 s⁻¹ and a kon of 2.05e+07 M⁻¹ s⁻¹. In addition, in test [2], binding was put at a Kd of 0.0161 nM, the koff was 0.000245 s⁻¹ and the kon came out at 1.52e+07 M⁻¹ s⁻¹. Besides, the “KD (pH 5.5)/KD (pH 7.4)” value in test [3] was 0.8.

B2: Anti-IL-6 clone 2 (antibody, human IgG1, kappa, V domains shown)
VH: EVQLVESGGKLLKPGGSLKLSCAASGFTFSSHAMSWFRQSPEKRLEWVAEISSGGSYTYHPHTVTGRFTISRDNAKNTLYLEMSSLRSEDTAMYYCARGLWGHYALDYWGQGTSVTVSS
VL: QIVLIQSPAIMSASPGEKVTMTCSASSSVSYMYWYQQKPGSSPRLLIYDTSHHASGVPVRFSGSGSGTSYSLTISRMEAEDAATYYCQHWSGHPYTFGGGTKLEIKR
notes: H chain (c1) / L chain (c2)
In the case of B2, in test [1], binding was characterised by a dissociation constant (Kd) of 0.294 nM, the koff was 0.00263 s⁻¹ and the kon worked out at 8.96e+06 M⁻¹ s⁻¹. In test [2], binding was put at a Kd of 3.98 nM, the koff was found to be 0.011 s⁻¹ and the kon was determined as 2.76e+06 M⁻¹ s⁻¹. Further, in test [3], the “KD (pH 5.5)/KD (pH 7.4)” value was found to be 13.5. For the same molecule, in test [4], the “pH-dependent binding ability relative to WT” value is more than 10 fold.

B3: Anti-IL6 clone 1 (antibody, human IgG1, kappa, V domains shown)
VH: EVQLVESGGKLLKPGGSLKLSCAASGFTFSSHAMSWFRQSPEKRLEWVAEISSGGSYTYHPHTVTGRFTISRDNAKNTLYLEMSSLRSEDTAMYYCARGLWGHYALDYWGQGTSVTVSS
VL: QIVLIQSPAIMSASPGEKVTMTCSASSSVSYMYWYQQKPGSSPRLLIYDTSNHASGVPVRFSGSGSGTSYSLTISRMEAEDAATYYCQHWSGHPYTFGGGTKLEIKR
notes: H chain (c1) / L chain (c1)
Consider B3, for which, in test [1], the Kd came out at 0.438 nM, the koff stood at 0.00471 s⁻¹ and the kon was 1.07e+07 M⁻¹ s⁻¹. In test [2], this molecule displayed a dissociation constant (Kd) of 4.52 nM, a dissociation rate constant (koff) of 0.00926 s⁻¹ and an association rate constant (kon) of 2.05e+06 M⁻¹ s⁻¹. Also, the “KD (pH 5.5)/KD (pH 7.4)” value in test [3] came out at 10.3. For the same molecule, the “pH-dependent binding ability relative to WT” value in test [4] was more than 10 fold.
